Measurements as given in US20220017620A1 (SHANGHAI FUDAN ZHANGJIANG BIO PHARMACEUTICAL, published 2022).

T1: 4Ig B7-H3 (soluble human B7-H3 protein with 435 amino acids) (human, UniProt Q5ZPR3 27-461, limits assumed)
T1 construct: also called 4Ig-B7H3 antigen; B7H3/4Ig
T1 sequence: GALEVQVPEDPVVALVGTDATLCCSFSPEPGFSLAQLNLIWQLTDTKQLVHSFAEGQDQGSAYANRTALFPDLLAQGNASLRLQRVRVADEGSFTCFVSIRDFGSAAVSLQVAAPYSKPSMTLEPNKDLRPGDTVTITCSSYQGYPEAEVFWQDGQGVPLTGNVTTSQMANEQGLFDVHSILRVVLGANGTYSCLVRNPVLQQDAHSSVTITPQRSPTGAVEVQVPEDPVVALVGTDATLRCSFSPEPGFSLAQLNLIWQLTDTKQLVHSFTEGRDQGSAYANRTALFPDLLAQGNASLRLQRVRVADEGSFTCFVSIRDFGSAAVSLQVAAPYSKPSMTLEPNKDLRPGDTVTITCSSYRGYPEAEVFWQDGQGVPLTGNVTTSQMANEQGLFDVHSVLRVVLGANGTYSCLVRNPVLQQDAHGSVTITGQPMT

T2: 2Ig B7-H3 (soluble human B7-H3 with 217 amino acids) (human, UniProt Q5ZPR3 29-463)
T2 construct: also called 2IgB7-H3 domain
T2 sequence: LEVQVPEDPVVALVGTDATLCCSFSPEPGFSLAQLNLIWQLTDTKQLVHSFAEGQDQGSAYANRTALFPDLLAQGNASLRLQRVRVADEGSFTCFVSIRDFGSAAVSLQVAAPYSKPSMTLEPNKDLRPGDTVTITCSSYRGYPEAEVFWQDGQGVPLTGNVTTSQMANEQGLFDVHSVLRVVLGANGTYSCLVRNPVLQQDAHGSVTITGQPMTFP

T3: IgC domain of B7-H3 (human, UniProt Q5ZPR3 141-242)
T3 sequence: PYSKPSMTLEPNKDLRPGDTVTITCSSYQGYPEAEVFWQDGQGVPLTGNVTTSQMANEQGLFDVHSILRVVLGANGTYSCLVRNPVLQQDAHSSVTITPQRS

T4: IgV domain of B7-H3 (human, UniProt Q5ZPR3 30-130)
T4 sequence: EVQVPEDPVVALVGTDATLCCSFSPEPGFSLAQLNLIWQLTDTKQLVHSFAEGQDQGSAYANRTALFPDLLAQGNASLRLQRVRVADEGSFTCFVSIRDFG

T5: antigen B7-H3 (R&D)
T5 construct: construct not described; also called B7-H3 protein; coated B7-H3 protein
T5 sequence (Q5ZPR3 whole entry, species assumed, looked up): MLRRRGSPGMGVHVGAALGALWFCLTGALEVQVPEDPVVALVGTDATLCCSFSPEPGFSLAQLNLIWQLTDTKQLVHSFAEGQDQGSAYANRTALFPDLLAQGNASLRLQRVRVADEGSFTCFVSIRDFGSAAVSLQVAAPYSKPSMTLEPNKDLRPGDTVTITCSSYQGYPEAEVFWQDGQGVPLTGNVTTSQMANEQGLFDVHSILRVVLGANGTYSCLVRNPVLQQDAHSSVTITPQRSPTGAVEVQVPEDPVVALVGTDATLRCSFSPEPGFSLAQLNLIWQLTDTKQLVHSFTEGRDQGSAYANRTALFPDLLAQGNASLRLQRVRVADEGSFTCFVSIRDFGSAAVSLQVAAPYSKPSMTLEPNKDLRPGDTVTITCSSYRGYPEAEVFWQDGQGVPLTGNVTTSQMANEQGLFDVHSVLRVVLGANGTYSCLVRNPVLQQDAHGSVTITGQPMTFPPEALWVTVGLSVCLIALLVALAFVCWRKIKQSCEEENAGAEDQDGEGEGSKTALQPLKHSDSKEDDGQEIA

T6: B7-H3 on B7-H3 transfected CHO cells
T6 construct: whole, on cells; also called CHO cells transfected with B7-H3
T6 sequence (Q5ZPR3 1-534, species assumed, looked up): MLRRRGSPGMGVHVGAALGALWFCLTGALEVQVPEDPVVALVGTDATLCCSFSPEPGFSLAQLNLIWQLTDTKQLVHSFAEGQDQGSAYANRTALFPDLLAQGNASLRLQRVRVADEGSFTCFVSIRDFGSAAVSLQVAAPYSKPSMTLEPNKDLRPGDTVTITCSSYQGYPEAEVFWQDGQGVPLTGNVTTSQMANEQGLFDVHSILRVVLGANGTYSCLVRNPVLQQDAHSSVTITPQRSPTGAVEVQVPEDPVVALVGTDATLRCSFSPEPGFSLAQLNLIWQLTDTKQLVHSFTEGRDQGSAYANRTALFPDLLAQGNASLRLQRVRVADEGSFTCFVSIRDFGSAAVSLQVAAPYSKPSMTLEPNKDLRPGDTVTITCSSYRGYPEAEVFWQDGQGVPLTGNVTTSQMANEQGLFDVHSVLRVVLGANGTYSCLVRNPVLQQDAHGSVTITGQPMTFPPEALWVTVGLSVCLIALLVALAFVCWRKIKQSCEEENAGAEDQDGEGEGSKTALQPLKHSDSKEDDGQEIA


What was measured:
[1] = target: T1, 4Ig B7-H3 (soluble human B7-H3 protein …); experiment: ELISA on coated antigen, IgG1 antibody
Protocol: (§1) Protein binding: 100 μL of antigen B7-H3 (R&D) at 20 ng/ml was coated onto microplate, incubated at 2-8° C. overnight. Subsequently, 100 μL of the prepared full-length IgG1 antibody described above was added with a total of 8 concentrations started from 2000 ng/ml and serially diluted with 3-fold, incubating at 37° C., 600 rpm for 1 hour. After the plate was washed for three times, Goat anti human IgG (Fc)-HRP enzyme-linked antibody was added and the plate was shook at 37° C. and 600 rpm for 1 hour. After the plate was washed for 4 times, TMB chromogenic solution was aliquoted in and incubated for 10 minutes, then 1 mol/L […] stop solution at 100 μL/well was aliquoted to stop the reaction and the absorbance was measured.

[2] = target: T2, 2Ig B7-H3 (soluble human B7-H3 with 217 …); experiment: ELISA on coated antigen, IgG1 antibody
Protocol: as §1

IgC domain of B7-H3 = target: T3, IgC domain of B7-H3; experiment: ELISA on coated antigen, IgG1 antibody
Protocol: as §1

IgV domain of B7-H3 [3] = target: T4, IgV domain of B7-H3; experiment: ELISA on coated antigen, IgG1 antibody
Protocol: as §1

[4] = target: T1, 4Ig B7-H3 (soluble human B7-H3 protein …); experiment: SPR, BIAcore T200, antibody amine-coupled to the chip, antigen as analyte, 1:1 Langmuir fit
Protocol: SPR detection was performed with BIAcore T200 (GE) system. Series Sensor Chip CMS and the amine coupling kit for immobilization were purchased from GE.
The B7-H3 antigen was diluted with HBS-EP buffer in a certain proportion to concentration gradients of 0 nM, 0.15625 nM, 0.3125 nM, 0.625 nM, 1.25 nM (two replicates), 2.5 nM, 5 nM, 10 nM, 20 nM, the flow rate was set to 30 μL/min, the binding time was set to 120 s, and the dissociation time was set to 1800 s for sample analysis. For regeneration, Gly-HCl buffer (pH 1.5) could be used as a regeneration buffer, the flow rate was set to 30 μL/min, and regeneration was performed for 30 s. The experiment adopted multi-cycle operation, for the response signal, the analysis time was set as the abscissa and the response value was set as the ordinate. The obtained data was fitted by BIAcore T200 analysis software. The fitting model used was 1:1 Langmuir binding model, and the kinetic constants such as the binding rate constant, the dissociation rate constant, and the binding and dissociation constant were determined.

IgV domain of B7-H3 [5] = target: T4, IgV domain of B7-H3; experiment: ELISA on B7-H3 domains, IgG1 antibody
Protocol: as §1

antigen B7-H3 (R&D) = target: T5, antigen B7-H3 (R&D); experiment: ELISA on coated B7-H3
Protocol: as §1

[6] = target: T6, B7-H3 on B7-H3 transfected CHO cells; experiment: cell-based ELISA on B7-H3 transfected CHO-K1 cells

ELISA signal value [1] [elisasignalvalue]	ELISA signal value [2] [elisasignalvalue]	ELISA signal value (IgC domain of B7-H3) [elisasignalvalue]	ELISA signal value (IgV domain of B7-H3 [3]) [elisasignalvalue]	Kd [4] [nM]	koff [4] [s⁻¹]	kon [4] [M⁻¹ s⁻¹]	EC50 (read off the curve) (antigen B7-H3 (R&D)) [µg/mL]	EC50 (read off the curve) [6] [µg/mL]	Binder	binding result (IgV domain of B7-H3 [5])
1.6 to 3	0.6 to 1.5	0.3 to 0.5	0.3 to 0.5	0.23	0.00167	7.26e+06	–	–	P1G2 full-length IgG1 antibody (antibody, V domains shown) VH: QVQLQQSGAEVKKPGSSVKVSCKASGGTFSSYAISWVRQAPGQGLEWMGRIIPILGIANYAQKFQGRVTITADKSTSTAYMELSSLRSEDTAVYYCAVNYYDSSGYYSDYWGQGTLVTVSS VL: SYELTQPPSASGSPGQSVTISCTGTSSDVGGYNYVSWYQQHPGKAPRLMIYGVSQRPSGVPDRFSGSKSGNTASLTVSGLQAEDEADYYCSSYANNNYVFGTGTKVTVL	–
–	1.6 to 3	0.6 to 1.5	–	0.0248	7.76e-05	3.13e+06	–	–	P1E11 full-length IgG1 antibody (antibody, V domains shown, also called biotin-P1E11) VH: not shown VL: EIVLTQSPLSLPVTLGQPASISCRSSQSLVHSDGNTYLNWFQQRPGQSPRRLIYKVSNRDSGVPDRFSGSGSGTDFTLKISRVEAEDVGFYYCMQGTHWPPGTFGQGTKLEIK	no binding (tested: ELISA signal value 0.1~0.2)
–	–	–	1.6 to 3	–	–	–	~0.1	–	P3H6 full-length IgG1 antibody (antibody, V domains shown) VH: QVQLVQSGAEVKKPGESLKISCKGSGYSFSNYWIGWVRQMPGKGLEWMGIIYPGDSDTRYSPSFQGQVTISADKSISTAYLQWSSLKASDTAMYYCARSRGYPTNYMDVWGRGTTVTVSS VL: QAVLTQPPSVSGAPRQRVTISCSGSSSNIGNNIVSWYQHLPGKAPRLLIYRERQRPSGVPDRFSGSKSGTSASLAISGLRSEDEADYYCATWDDSLNSWVFGGGTKLTVL	–
0.6 to 1.5	0.3 to 0.5	0.3 to 0.5	0.3 to 0.5	2.4	5.9e-05	42500	–	~0.02	P2E5 full-length IgG1 antibody (antibody, V domains shown, also called biotin-P2E5) VH: QVTLKESGGGLVQPGGSLRLSCAASGFTFSNSYMTWVRQAPGMGLEWVASMKPDGSVKHYVDSVKGRFTISRDNTKNSLDLQMNSLRAEDTAVYYCSSYDTRWGWFDPWGEGTLVTVSS VL: QTVVTQEPSFSVSPGGTVTLTCGLNSGSVSTSYFPSWYQQTPGQAPRTLIYNTNTRSSGVPDRFSGSILGNKAALTITGAQADDESDYYCLLYMDSGPHWVFGGGTKLTVL	–
